Measurements taken from publication PMC3030355.
Where two headings read alike, the source gives them in different places.

Experiments:
Assay in all cases: EMSA
[1] = target: T1, RPA-wt (RPA70/RPA32/RPA14 heterotrimer) (human, UniProt P27694;P15927;P35244 1-616;1-270;1-121)
[2] = target: T2, WRN-E84A (exonuclease-deficient) (human, UniProt Q14191 1-1432, E84A)
[3] = target: T2, WRN-E84A (exonuclease-deficient); remark: listed apart in the source
[4] = target: T1, RPA-wt (RPA70/RPA32/RPA14 heterotrimer); remark: listed apart in the source
[5] = target: T1, RPA-wt (RPA70/RPA32/RPA14 heterotrimer); remark: listed apart in the source

T1 sequence (P27694 whole entry, chain 1 of 3): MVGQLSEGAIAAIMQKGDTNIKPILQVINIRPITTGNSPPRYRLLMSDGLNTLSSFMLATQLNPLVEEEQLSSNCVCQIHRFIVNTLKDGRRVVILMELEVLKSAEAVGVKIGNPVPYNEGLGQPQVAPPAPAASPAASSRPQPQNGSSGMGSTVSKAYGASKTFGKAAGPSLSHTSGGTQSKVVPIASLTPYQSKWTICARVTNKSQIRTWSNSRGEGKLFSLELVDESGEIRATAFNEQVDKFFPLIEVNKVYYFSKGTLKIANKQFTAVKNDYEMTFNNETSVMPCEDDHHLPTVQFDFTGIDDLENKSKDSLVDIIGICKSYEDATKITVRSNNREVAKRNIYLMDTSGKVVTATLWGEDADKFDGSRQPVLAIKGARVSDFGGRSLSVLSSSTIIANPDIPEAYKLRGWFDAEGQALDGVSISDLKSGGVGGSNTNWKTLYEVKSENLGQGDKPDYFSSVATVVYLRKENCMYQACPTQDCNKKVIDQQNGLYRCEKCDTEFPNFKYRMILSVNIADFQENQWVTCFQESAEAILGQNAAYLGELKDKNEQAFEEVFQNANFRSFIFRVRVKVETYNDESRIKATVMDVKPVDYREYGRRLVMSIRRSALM
T1 sequence (P15927 whole entry, chain 2 of 3): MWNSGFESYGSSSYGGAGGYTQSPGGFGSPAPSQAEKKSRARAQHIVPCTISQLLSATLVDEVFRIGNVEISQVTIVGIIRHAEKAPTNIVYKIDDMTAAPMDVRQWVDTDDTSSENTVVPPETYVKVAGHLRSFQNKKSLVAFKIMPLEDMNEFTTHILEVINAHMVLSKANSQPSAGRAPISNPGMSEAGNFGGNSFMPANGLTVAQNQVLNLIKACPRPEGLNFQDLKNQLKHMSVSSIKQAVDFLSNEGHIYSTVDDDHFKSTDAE
T1 sequence (P35244 whole entry, chain 3 of 3): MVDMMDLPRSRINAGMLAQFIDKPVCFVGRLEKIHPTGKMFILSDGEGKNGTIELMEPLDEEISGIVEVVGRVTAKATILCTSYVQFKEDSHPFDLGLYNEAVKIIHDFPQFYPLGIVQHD
T2 sequence (Q14191 whole entry E84A): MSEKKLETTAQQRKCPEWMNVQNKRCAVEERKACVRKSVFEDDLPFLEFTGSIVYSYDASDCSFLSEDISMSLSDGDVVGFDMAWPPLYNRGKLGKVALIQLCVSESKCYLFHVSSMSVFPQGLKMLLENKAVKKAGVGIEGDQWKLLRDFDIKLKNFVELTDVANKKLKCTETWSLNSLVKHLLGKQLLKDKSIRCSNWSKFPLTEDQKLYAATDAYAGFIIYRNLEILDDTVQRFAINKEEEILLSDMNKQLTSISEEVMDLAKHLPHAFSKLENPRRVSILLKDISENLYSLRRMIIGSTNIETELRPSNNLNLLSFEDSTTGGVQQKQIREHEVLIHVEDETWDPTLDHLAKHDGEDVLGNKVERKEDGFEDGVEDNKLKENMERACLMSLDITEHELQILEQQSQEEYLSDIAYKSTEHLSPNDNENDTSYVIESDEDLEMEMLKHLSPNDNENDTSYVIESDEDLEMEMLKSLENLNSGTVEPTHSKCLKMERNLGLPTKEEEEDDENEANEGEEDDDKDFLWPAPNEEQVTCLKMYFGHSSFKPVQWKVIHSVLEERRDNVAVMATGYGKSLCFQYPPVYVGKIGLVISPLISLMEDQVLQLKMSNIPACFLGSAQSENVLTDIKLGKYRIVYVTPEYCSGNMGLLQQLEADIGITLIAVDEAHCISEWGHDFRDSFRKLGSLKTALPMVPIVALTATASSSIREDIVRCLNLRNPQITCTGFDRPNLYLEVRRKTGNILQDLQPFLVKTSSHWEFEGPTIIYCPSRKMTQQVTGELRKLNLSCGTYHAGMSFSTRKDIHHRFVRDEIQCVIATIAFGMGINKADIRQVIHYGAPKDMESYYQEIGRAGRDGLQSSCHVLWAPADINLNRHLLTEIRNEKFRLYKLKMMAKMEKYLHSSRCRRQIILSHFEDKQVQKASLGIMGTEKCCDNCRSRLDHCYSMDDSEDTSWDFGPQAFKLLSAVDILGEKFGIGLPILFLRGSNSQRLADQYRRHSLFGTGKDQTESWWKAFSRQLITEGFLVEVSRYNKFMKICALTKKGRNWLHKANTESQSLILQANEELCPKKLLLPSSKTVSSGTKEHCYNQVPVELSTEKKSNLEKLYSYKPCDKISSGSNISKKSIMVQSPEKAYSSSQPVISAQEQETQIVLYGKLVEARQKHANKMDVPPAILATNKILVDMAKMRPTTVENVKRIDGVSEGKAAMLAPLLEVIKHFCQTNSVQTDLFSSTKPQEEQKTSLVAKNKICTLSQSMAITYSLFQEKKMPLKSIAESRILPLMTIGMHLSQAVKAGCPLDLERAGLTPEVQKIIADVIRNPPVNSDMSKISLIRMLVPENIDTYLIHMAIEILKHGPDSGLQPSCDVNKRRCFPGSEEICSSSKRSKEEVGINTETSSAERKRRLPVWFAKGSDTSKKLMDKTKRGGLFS

B1: model replication fork, 32-nt leading gap (mixed)
DNA 1: CGTGACTTGATGTTAACCCTAACCCTAAGATATCGCGTTAAGTGAGTGTGAGGATACATGTAGGCAATTGCCACGTGTCTATCAGCTGAAGTTGTTCGCGACGTGCGATCGTCGCTGCGACG
DNA 2: CGTCGCAGCGACGATCGCACGTCGCGAACAACTTCAGCTGATAGACACGTGGCAATTGCCTACATGTATCCTCACACTCTGAATACGCGATATCTTAGGGTTAGGGTTAACATCAAGTCACG
DNA 3: CGTCGCAGCGACGATCGCACGTCGCGAACAACTTCAGCTGATAGACACGTGG
DNA 4: TCAGAGTGTGAGGATACATGTAGGCAATTGCCACGTGTCTATCAGCTGAAGTTGTTCGCGACGTGCGATCGTCGCTGCGACG
B1: binds [1]; binds [2].

B2: gapped duplex, 32-nt gap (mixed)
DNA 1: CGTGACTTGATGTTAACCCTAACCCTAAGATATCGCGTTAAGTGAGTGTGAGGATACATGTAGGCAATTGCCACGTGTCTATCAGCTGAAGTTGTTCGCGACGTGCGATCGTCGCTGCGACG
DNA 2: CGTCGCAGCGACGATCGCACGTCGCGAACAACTTCAGCTGATAGACACGTGG
DNA 3: ACGCGATATCTTAGGGTTAGGGTTAACATCAAGTCACG
B2: binds [3]; binds [4].

TAAGTGAGTGTGAGGATACATGTAGGCAATTG (ssDNA) [ss32]: binds [5].
